Measured values reported in patent US11680267B2, “Co-regulatory sequences based on tetracycline and Cumate” (Shenzhen Eureka Biotechnology Co., Ltd., priority 2020, dated 2023).

B1: TRE3GCuO30: Tet-On (TRE3G) and Cumate complex response element, CuO 30 bp behind the TATA box (SEQ ID NO: 28) (nucleic acid)
DNA: TCCCTATCAGTGATAGAGAACGTATGAAGAGTTTACTCCCTATCAGTGATAGAGAACGTATGCAGACTTTACTCCCTATCAGTGATAGAGAACGTATAAGGAGTTTACTCCCTATCAGTGATAGAGAACGTATGACCAGTTTACTCCCTATCAGTGATAGAGAACGTATCTACAGTTTACTCCCTATCAGTGATAGAGAACGTATATCCAGTTTACTCCCTATCAGTGATAGAGAACGTATTAGGCGTGTACGGTGGGCGCCTATAAAAGCAGAGCTCGTTTAGTGAACCGTCAGATACAAACAGACCAGATTGTCTGTTTGTT
modifications: TRE3GCuO30 response element sequence
B2: TREadvCuO: Tet-On (7xTetO of TREadv) and Cumate complex response element, CuO 52 bp behind the TATA box (SEQ ID NO: 30) (nucleic acid)
DNA: TCCCTATCAGTGATAGAGAACGTATGTCGAGTTTACTCCCTATCAGTGATAGAGAACGATGTCGAGTTTACTCCCTATCAGTGATAGAGAACGTATGTCGAGTTTACTCCCTATCAGTGATAGAGAACGTATGTCGAGTTTACTCCCTATCAGTGATAGAGAACGTATGTCGAGTTTATCCCTATCAGTGATAGAGAACGTATGTCGAGTTTACTCCCTATCAGTGATAGAGAACGTATGTCGAGGTAGGCGTGTACGGTGGGAGGCCTATATAAGCAACCGGTGTTTAGTGAACCGTCAGATCGCCTGGAGACGCCATCATAATACAAACAGACCAGATTGTCTGTTTGTT
modifications: TREadvCuO52 response element sequence
B3: TREadvCuO32: Tet-On (TREadv) and Cumate complex response element, CuO 32 bp behind the TATA box (SEQ ID NO: 29) (nucleic acid)
DNA: TCCCTATCAGTGATAGAGAACGTATGTCGAGTTTACTCCCTATCAGTGATAGAGAACGATGTCGAGTTTACTCCCTATCAGTGATAGAGAACGTATGTCGAGTTTACTCCCTATCAGTGATAGAGAACGTATGTCGAGTTTACTCCCTATCAGTGATAGAGAACGTATGTCGAGTTTATCCCTATCAGTGATAGAGAACGTATGTCGAGTTTACTCCCTATCAGTGATAGAGAACGTATGTCGAGGTAGGCGTGTACGGTGGGAGGCCTATATAAGCAACCGGTGTTTAGTGAACCGTCAGATCTACAAACAGACCAGATTGTCTGTTTGTT
modifications: TREadvCuO32 response element sequence

Columns and labels:
Assay type in all cases: cell-based
293T-rtTA3G-CymR cells [1] = experiment: Luciferase fluorescence intensity assay, transient transfection, both DOX and Cumate vs DOX alone (Example 2); details: for induced expression level: transient transfection, 24 hours after transfection
Description: The experiment described in the present Example is to study and verify the effect of the position and copy number of the CuO operator in the Tet-On and Cumate complex response element on the induced expression level and non-induced leaky expression level of the complex response element, and to optimize and confirm the optimal position and copy number of the CuO operator. In the present Example, based on the 7×TetO sequence in the TRE3G response element and the minimal promoter sequence #1 (SEQ ID NO: 25), the response elements TRE3GCuO14 (10-317 bp in SEQ ID NO: 8), TRE3GCuO30 (SEQ ID NO: 28), TRE3GCuO50 (SEQ ID NO: 23) and TRE3GCuO100 (10-403 bp in SEQ ID NO: 10) were designed by linking a CuO operator sequence at 10 bp to 100 bp downstream of the TATA box (at 14 bp, 30 bp, 50 bp and 100 bp downstream of the TATA box, respectively), and a Luciferase reporter gene sequence was linked downstream of the 3′ end of the above response elements, to construct plasmids 18BF251, 18BF252, 18BF235 and 18BF253. Further, in order to study the effect of multiple copies of CuO operators, 2, 4 and 6 copies of CuO operator sequences were respectively inserted at 50 bp downstream of the TATA box, to design the response elements TRE3GCuO2x (10-411 bp in SEQ ID NO: 11), TRE3GCuO4x (10-527 bp in SEQ ID NO: 12) and TRE3GCuO6x (10-643 bp in SEQ ID NO: 13), and then a Luciferase reporter gene sequence was linked downstream of 3′ end of the above response elements to construct plasmids 18BF254, 18BF255 and 18BF256. In 293T-rtTA3G-CymR cells stably expressing rtTA3G and CymR genes, the above plasmids were transiently transfected, and the optimal position and number of CuO operator were validated by measuring the luciferase […] value of samples added with both DOX and Cumate inducers and that of the control added with the DOX inducer only. The specific experimental methods were as follows:
(§1) 293T cells were seeded at 1.5E+06 cells per 60 mm culture dish, and cultured in DMEM (Sigam, D6429) complete medium supplemented with 10% FBS (ExCell, 11H116) at 37° C. and 5% CO 2. After 24 hours of culture, transfection was carried out according to the PEI method. During transfection, 500 μL of transfection reagent which contained 5.5 ug of total plasmid was added to each 60 mm culture dish, and the mass ratio of total plasmid to PEI MAX (Polysciences, 24765-1) was 1:4. The transfection was carried out according to the PEI method, wherein the amount of total plasmid was 5.5 μg. The transfection was performed with plasmids 19BF074:18BF019 at a molar ratio of 10:1 to obtain 293T-rtTAadv-CymR cells; and the transfection was performed with plasmids 19BF075:18BF019 at a molar ratio of 10:1 to obtain 293T-rtTA3G-CymR cells. The plasmid and PEI MAX were mixed uniformly, and then put into a culture dish after standing for 15 minutes. 3 hours after transfection, the medium was changed to a complete DMEM medium, and the transfection operation was completed. After 24 hours of transfection, the cells were digested with trypsin and all seeded in a 100 mm culture dish (Corning, 430167), and 200 μg/ml of hygromycin (Sangon Biotech A600230-0001) drug screening was performed for at least three passages. After the growth of cells under the pressure of drug screening was consistent with that of the original 293T cells, the following experiments were performed.
The 293T-rtTA3G-CymR cells were seeded in a 96-well plate (Corning 3916) at 2.5E+04 cells per well, and the medium was 100 microliters of DMEM complete medium. […]

293T-rtTAadv-CymR cells = experiment: Luciferase assay, transient transfection, DOX and Cumate vs no inducer (Example 3), rtTAadv cells
Procedure: as §1
(§2) In Tet-On inducible expression system, the induced transcription activity and the leaky transcription activity were comprehensively affected by the TetO operator linking sequence of the TRE response element and the minimal promoter sequence, as well as different mutants of the transactivator rtTA. In addition, the transport and stability of messenger ribonucleic acid may be enhanced by linking a spliceable intron sequence downstream of the 3′ end of the response element and upstream of the 5′ end of the regulated nucleic acid fragment of interest, but the induced transcription activity and leaky transcription activity of response element of the inducible expression system may also be affected. Based on this, the optimal design scheme of complex response element was determined in this Example based on the induced expression level and the ratio of induced/leaky expression level of Luciferase gene under the combination of the following conditions: (1) Tet-On and Cumate complex response elements TREadvCuO and TRE3GCuO designed based on the TREadv and TRE3G response element sequences; (2) whether an intron was linked; (3) being regulated by the transactivator rtTAadv or rtTA3G. A total of 8 design schemes were compared in this Example: TREadv (18BF232), TREadvCuO (18BF233), TRE3G (18BF234), TRE3GCuO (18BF235), TREadv-BGI (18BF240, wherein the response element was TREadv, and a human β-globulin intron was linked between the 3′ end of the response element and the 5′ end of the Luciferase gene), TREadvCuO-BGI (18BF241, wherein the response element was TREadvCuO, and a human β-globulin intron was linked between the 3′ end of the response element and the 5′ end of the Luciferase gene), TRE3G-BGI (18BF236, wherein the response element was TRE3G, and a human β-globulin intron was linked between the 3′ end of the response element and the 5′ end of the Luciferase gene) and TRE3GCuO-BGI (18BF237, wherein the response element was TRE3GCuO, and a human β-globulin intron was linked between the 3′ end of the response element and the 5′ end of the Luciferase gene). The promoter CMV-BGI (18BF229, wherein the promoter was CMV, and a human β-globulin intron was linked between the 3′ end of the CMV promoter and the 5′ end of the Luciferase gene) was used as a positive control. […]

293T-rtTA3G-CymR cells [2] = experiment: Luciferase assay, transient transfection, DOX and Cumate vs no inducer (Example 3), rtTA3G cells; details: 293T-rtTA3G-CymR cells
Procedure: as §1, §2

293T-rtTA3G-CymR cells [3] = experiment: Luciferase fluorescence intensity assay, transient transfection, both DOX and Cumate vs DOX alone (Example 2); details: for induced expression level as % of the induced expression level for TREadv response element: 1 ug/ml DOX and 200 ug/ml Cumate; for ratio of induced/leaky expression level based on Cumate inducible expression system, relative to that for the TREadv response element: DOX and Cumate vs DOX only
[4] = 1 ug/ml DOX and 200 ug/ml Cumate

| Molecule | induced expression level as % of the induced expression level of TRE3G response element (293T-rtTA3G-CymR cells [1]; [4]) [%] | ratio of induced/leaky expression level based on Cumate inducible expression system, relative to that of TRE3G response element (293T-rtTA3G-CymR cells [1]; DOX and Cumate vs DOX only) [times] | induced expression level (293T-rtTA3G-CymR cells [1]; [4]) | induced expression level as % of that of the corresponding TRE3G or TREadv single regulatory response element (293T-rtTAadv-CymR cells; DOX and Cumate) [%] | induced/leaky expression ratio (293T-rtTAadv-CymR cells; DOX and Cumate vs no inducer) [times] | induced expression level as % of that of the single regulatory response element (293T-rtTA3G-CymR cells [2]; DOX and Cumate) [%] | induced/leaky expression ratio (293T-rtTA3G-CymR cells [2]; DOX and Cumate vs no inducer) [times] | induced expression level as % of the induced expression level for TREadv response element (293T-rtTA3G-CymR cells [3]) [%] | ratio of induced/leaky expression level based on Cumate inducible expression system, relative to that for the TREadv response element (293T-rtTA3G-CymR cells [3]) [times] |
| --- | --- | --- | --- | --- | --- | --- | --- | --- | --- |
| B1 | 44.5 | 4.21 | 3.06E+06 RLU | – | – | – | – | – | – |
| B2 | – | – | 4.88E+06 RLU | 36.3 | 1345 | 40.3 | 1915 | 53.4 | 3.23 |
| B3 | – | – | 3.26+06 RLU | – | – | – | – | 37.8 | 4.97 |
